From the Immune Epitope Database (IEDB)

Experiments:
HLA-A*01:01 = experiment: IEDB peptide-MHC binding, purified MHC/direct/fluorescence; filed as Kd, often an IC50 or EC50 that approximates it; ≥ and ≤ were set here for values at or beyond the usual limits of such assays
HLA-B*40:01 = experiment: as above
HLA-C*07:02 = experiment: as above
HLA-B*58:01 = experiment: as above
HLA-A*31:01 = experiment: as above
HLA-B*27:05 = experiment: as above
HLA-A*69:01 = experiment: as above
HLA-A*11:01 = experiment: as above
HLA-A*03:01 = experiment: as above
HLA-A*30:01 = experiment: as above; settings: source organism: Salmonella enterica subsp. enterica serovar Typhi
HLA-B*15:01 = experiment: as above
HLA-B*44:02 = experiment: as above
HLA-C*06:02 = experiment: as above; settings: source organism: Salmonella enterica subsp. enterica serovar Typhi str. CT18
HLA-A*26:01 = experiment: as above
HLA-A*02:01 [1] = experiment: as above
HLA-B*73:01 = experiment: as above
HLA-B*08:01 = experiment: as above
HLA-B*15:17 [2] = experiment: IEDB peptide-MHC binding, purified MHC/competitive/fluorescence; filed as Kd, often an IC50 or EC50 that approximates it; ≥ and ≤ were set here for values at or beyond the usual limits of such assays; settings: source organism: Vaccinia virus WR
HLA-B*18:01 [3] = experiment: as above; settings: source organism: Vaccinia virus WR
HLA-A*02:01 [4] = experiment: as above; settings: source organism: Vaccinia virus WR
HLA-A*68:02 = experiment: IEDB peptide-MHC binding, purified MHC/direct/fluorescence; filed as Kd, often an IC50 or EC50 that approximates it; ≥ and ≤ were set here for values at or beyond the usual limits of such assays
HLA-A*26:02 [5] = experiment: as above; settings: source organism: Variola virus
HLA-B*15:09 = experiment: as above
HLA-B*07:02 = experiment: as above
HLA-B*57:01 = experiment: as above
HLA-A*24:03 = experiment: as above; settings: source organism: Camelpox virus M-96
HLA-A*26:03 = experiment: as above; settings: source organism: Variola virus
HLA-B*08:03 = experiment: as above
HLA-A*26:02 [6] = experiment: IEDB peptide-MHC binding, purified MHC/competitive/fluorescence; filed as Kd, often an IC50 or EC50 that approximates it; ≥ and ≤ were set here for values at or beyond the usual limits of such assays; settings: source organism: Orthomarburgvirus marburgense
HLA-B*48:01 [7] = experiment: as above; settings: source organism: Orthomarburgvirus marburgense
HLA-B*39:01 = experiment: IEDB peptide-MHC binding, purified MHC/direct/fluorescence; filed as Kd, often an IC50 or EC50 that approximates it; ≥ and ≤ were set here for values at or beyond the usual limits of such assays; settings: source organism: Marburg virus - Musoke, Kenya, 1980
HLA-B*15:17 [8] = experiment: as above; settings: source organism: Marburg virus - Musoke, Kenya, 1980
HLA-B*08:02 = experiment: as above
HLA-B*18:01 [9] = experiment: as above
HLA-B*46:01 = experiment: as above
HLA-B*48:01 [10] = experiment: as above
HLA-A*29:02 = experiment: as above
HLA-B*45:06 = experiment: IEDB peptide-MHC binding, purified MHC/competitive/fluorescence; filed as Kd, often an IC50 or EC50 that approximates it; ≥ and ≤ were set here for values at or beyond the usual limits of such assays; settings: source organism: Mycobacterium tuberculosis variant bovis BCG str. Pasteur 1173P2
HLA-B*83:01 = experiment: as above; settings: source organism: Mycobacterium tuberculosis variant bovis BCG str. Pasteur 1173P2
HLA-A*03:19 = experiment: as above; settings: source organism: Mycobacterium tuberculosis variant bovis BCG str. Pasteur 1173P2
HLA-B*15:42 = experiment: as above; settings: source organism: Mycobacterium tuberculosis variant bovis BCG str. Pasteur 1173P2
[11] = source organism: Salmonella enterica
[12] = source organism: Salmonella enterica subsp. enterica serovar Typhi
[13] = source organism: Camelpox virus M-96
[14] = source organism: Marburg virus - Musoke, Kenya, 1980
[15] = source organism: Ravn virus - Ravn, Kenya, 1987
[16] = source organism: Mycobacterium tuberculosis
[17] = source organism: Vibrio cholerae
[18] = source organism: Mammarenavirus lassaense

Sequence: RRRQWASCM
- Kd (HLA-A*01:01; [11]): ≥ 20 µM
- Kd (HLA-B*40:01; [11]): ≥ 20 µM
- Kd (HLA-C*07:02; source organism: Salmonella enterica subsp. enterica serovar Typhi str. CT18): 0.045 µM
- Kd (HLA-B*58:01; [11]): ≥ 20 µM
- Kd (HLA-A*31:01; [11]): ≥ 20 µM
- Kd (HLA-B*27:05; [12]): 0.0774 µM
- Kd (HLA-A*69:01; [11]): ≥ 20 µM
- Kd (HLA-A*11:01; [11]): ≥ 20 µM
- Kd (HLA-A*03:01; [11]): ≥ 20 µM
- Kd (HLA-A*30:01): ≥ 20 µM
- Kd (HLA-B*15:01; [11]): ≥ 20 µM
- Kd (HLA-B*44:02; [11]): ≥ 20 µM
- Kd (HLA-C*06:02): 0.024 µM
- Kd (HLA-A*26:01; [11]): ≥ 20 µM
- Kd (HLA-A*02:01 [1]; [11]): ≥ 20 µM
- Kd (HLA-B*73:01; source organism: Salmonella enterica subsp. enterica serovar Typhimurium): ≥ 20 µM
- Kd (HLA-B*08:01; [12]): 13.9 µM

Sequence: FYLFTFTIY
- Kd (HLA-B*15:17 [2]): ≥ 20 µM
- Kd (HLA-B*18:01 [3]): 3.89 µM
- Kd (HLA-A*02:01 [4]): ≥ 20 µM
- Kd (HLA-A*01:01; [13]): ≥ 20 µM
- Kd (HLA-A*68:02; [13]): ≥ 20 µM
- Kd (HLA-C*07:02; source organism: Vaccinia virus WR): 2 µM
- Kd (HLA-A*26:02 [5]): ≥ 20 µM
- Kd (HLA-B*58:01; [13]): ≥ 20 µM
- Kd (HLA-B*15:09; source organism: Variola virus): ≥ 20 µM
- Kd (HLA-B*07:02; [13]): ≥ 20 µM
- Kd (HLA-B*57:01; [13]): ≥ 20 µM
- Kd (HLA-A*24:03): 1.25 µM
- Kd (HLA-A*31:01; [13]): ≥ 20 µM
- Kd (HLA-A*69:01; [13]): ≥ 20 µM
- Kd (HLA-A*11:01; [13]): ≥ 20 µM
- Kd (HLA-B*15:01; [13]): ≥ 20 µM
- Kd (HLA-A*26:03): ≥ 20 µM
- Kd (HLA-B*08:03; source organism: Variola virus): ≥ 20 µM

Sequence: THYSGNIVH
- Kd (HLA-A*26:02 [6]): ≥ 20 µM
- Kd (HLA-B*48:01 [7]): ≥ 20 µM
- Kd (HLA-A*01:01; [14]): ≥ 20 µM
- Kd (HLA-A*68:02; [14]): ≥ 20 µM
- Kd (HLA-B*40:01; [14]): ≥ 20 µM
- Kd (HLA-B*58:01; [14]): ≥ 20 µM
- Kd (HLA-B*39:01): 0.0274 µM
- Kd (HLA-B*15:09; [15]): 0.046 µM
- Kd (HLA-B*15:17 [8]): ≥ 20 µM
- Kd (HLA-B*07:02; [14]): ≥ 20 µM
- Kd (HLA-B*57:01; [14]): ≥ 20 µM
- Kd (HLA-B*08:02; [15]): ≥ 20 µM
- Kd (HLA-B*27:05; [14]): ≥ 20 µM
- Kd (HLA-A*69:01; [14]): ≥ 20 µM
- Kd (HLA-B*18:01 [9]; [14]): ≥ 20 µM
- Kd (HLA-B*46:01; [14]): ≥ 20 µM
- Kd (HLA-B*15:01; [14]): ≥ 20 µM
- Kd (HLA-A*26:01; [15]): ≥ 20 µM
- Kd (HLA-A*02:01 [1]; [14]): ≥ 20 µM
- Kd (HLA-B*08:01; [15]): ≥ 20 µM

Sequence: QRIAVPVTK
- Kd (HLA-B*27:05; [16]): 0.095 µM
- Kd (HLA-B*48:01 [10]; [16]): ≥ 20 µM
- Kd (HLA-B*73:01; source organism: Mycobacterium tuberculosis str. Haarlem): ≥ 20 µM

Sequence: VLKLRFWLI
- Kd (HLA-A*01:01; [17]): ≥ 20 µM
- Kd (HLA-B*40:01; [17]): ≥ 20 µM
- Kd (HLA-B*58:01; [17]): ≥ 20 µM
- Kd (HLA-B*07:02; [17]): ≥ 20 µM
- Kd (HLA-B*57:01; [17]): ≥ 20 µM
- Kd (HLA-A*31:01; [17]): ≥ 20 µM
- Kd (HLA-B*08:02; [17]): ≥ 20 µM
- Kd (HLA-B*27:05; [17]): ≥ 20 µM
- Kd (HLA-A*69:01; [17]): ≥ 20 µM
- Kd (HLA-A*11:01; [17]): ≥ 20 µM
- Kd (HLA-B*48:01 [10]; [17]): ≥ 20 µM
- Kd (HLA-B*18:01 [9]; [17]): ≥ 20 µM
- Kd (HLA-A*03:01; [17]): ≥ 20 µM
- Kd (HLA-B*46:01; [17]): ≥ 20 µM
- Kd (HLA-B*15:01; [17]): ≥ 20 µM
- Kd (HLA-B*44:02; [17]): ≥ 20 µM
- Kd (HLA-A*02:01 [1]; [17]): ≥ 20 µM
- Kd (HLA-A*29:02; [17]): ≥ 20 µM
- Kd (HLA-B*08:03; [17]): 0.188 µM
- Kd (HLA-B*08:01; [17]): 0.034 µM

Sequence: RWRWFRAAM
- Kd (HLA-B*45:06): ≥ 5 µM
- Kd (HLA-B*83:01): ≥ 5 µM
- Kd (HLA-A*03:19): 0.814 µM
- Kd (HLA-B*15:42): ≥ 5 µM

Sequence: QLDQRRALL
- Kd (HLA-B*58:01; [18]): ≥ 20 µM
- Kd (HLA-B*57:01; [18]): ≥ 20 µM
- Kd (HLA-B*08:02; [18]): 15.1 µM
- Kd (HLA-B*27:05; [18]): ≥ 20 µM
- Kd (HLA-B*48:01 [10]; [18]): ≥ 20 µM
- Kd (HLA-B*18:01 [9]; [18]): ≥ 20 µM
- Kd (HLA-B*46:01; [18]): ≥ 20 µM
- Kd (HLA-B*15:01; [18]): ≥ 20 µM
- Kd (HLA-B*44:02; [18]): ≥ 20 µM
- Kd (HLA-A*29:02; [18]): ≥ 20 µM
- Kd (HLA-B*08:01; [18]): 0.773 µM
